Assay [1] concerns the target T1, FLAG-CD19-ECD-GGSG-NLuc-AcV5 (human).
T1 construct: the entry includes the signal peptide; also called CD19-GGSG-NLuc-AcV5; CD19-GGSG-NLuc fusion protein
T1 chain: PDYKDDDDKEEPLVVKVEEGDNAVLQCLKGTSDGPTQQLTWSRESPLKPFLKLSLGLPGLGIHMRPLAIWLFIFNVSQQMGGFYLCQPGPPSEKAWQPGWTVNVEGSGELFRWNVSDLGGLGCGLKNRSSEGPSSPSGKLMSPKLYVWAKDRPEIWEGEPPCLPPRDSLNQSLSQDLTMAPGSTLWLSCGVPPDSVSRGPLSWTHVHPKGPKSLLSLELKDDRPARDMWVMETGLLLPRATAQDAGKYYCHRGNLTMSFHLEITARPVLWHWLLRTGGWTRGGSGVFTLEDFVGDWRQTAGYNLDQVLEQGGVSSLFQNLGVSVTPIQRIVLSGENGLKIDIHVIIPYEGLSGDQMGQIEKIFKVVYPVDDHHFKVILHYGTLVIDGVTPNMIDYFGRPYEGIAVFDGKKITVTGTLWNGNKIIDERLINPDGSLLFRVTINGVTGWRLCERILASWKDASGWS
The assay is described as follows: NLuc assay: CAR-T cells incubated with CD19-GGSG-NLuc-AcV5 supernatant.

Assay [2] has as its target T1, FLAG-CD19-ECD-GGSG-NLuc-AcV5. In words: NLuc assay: CAR on Jurkat-NFAT-Luc cells incubated with FLAG-CD19-ECD-GGSG-NLuc-AcV5 supernatant.
Assay [3] concerns the target T2, human MPL (thrombopoietin receptor) (human, UniProt P40238 26-635).
T2 construct: whole, on cells; also called c-MPL; c-Mpl
T2 sequence (looked up): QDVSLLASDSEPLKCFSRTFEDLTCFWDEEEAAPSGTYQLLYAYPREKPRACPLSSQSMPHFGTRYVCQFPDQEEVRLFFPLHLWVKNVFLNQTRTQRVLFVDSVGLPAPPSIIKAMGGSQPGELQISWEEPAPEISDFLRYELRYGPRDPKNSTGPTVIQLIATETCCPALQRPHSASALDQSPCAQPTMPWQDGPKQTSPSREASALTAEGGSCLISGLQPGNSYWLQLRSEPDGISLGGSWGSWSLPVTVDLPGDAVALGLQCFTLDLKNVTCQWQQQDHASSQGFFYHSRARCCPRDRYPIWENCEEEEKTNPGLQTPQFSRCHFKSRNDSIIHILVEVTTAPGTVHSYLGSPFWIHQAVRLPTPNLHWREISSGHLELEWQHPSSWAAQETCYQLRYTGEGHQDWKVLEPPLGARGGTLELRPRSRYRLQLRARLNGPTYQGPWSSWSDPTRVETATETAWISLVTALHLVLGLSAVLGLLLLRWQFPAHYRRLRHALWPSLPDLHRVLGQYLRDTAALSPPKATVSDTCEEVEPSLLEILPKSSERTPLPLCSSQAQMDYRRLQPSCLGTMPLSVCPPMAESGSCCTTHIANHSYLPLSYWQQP
In words: NLuc luminescence of scFv-NLuc fusion supernatant bound to washed cells.

Another assay concerns the target T3, MPL-ECD-GGSG-Nluc-AcV5 (human).
T3 construct: the entry includes the native signal peptide; also called MPL-GGSG-NLuc-AcV5; MPL-GGSG-NLuc AcV5
T3 chain: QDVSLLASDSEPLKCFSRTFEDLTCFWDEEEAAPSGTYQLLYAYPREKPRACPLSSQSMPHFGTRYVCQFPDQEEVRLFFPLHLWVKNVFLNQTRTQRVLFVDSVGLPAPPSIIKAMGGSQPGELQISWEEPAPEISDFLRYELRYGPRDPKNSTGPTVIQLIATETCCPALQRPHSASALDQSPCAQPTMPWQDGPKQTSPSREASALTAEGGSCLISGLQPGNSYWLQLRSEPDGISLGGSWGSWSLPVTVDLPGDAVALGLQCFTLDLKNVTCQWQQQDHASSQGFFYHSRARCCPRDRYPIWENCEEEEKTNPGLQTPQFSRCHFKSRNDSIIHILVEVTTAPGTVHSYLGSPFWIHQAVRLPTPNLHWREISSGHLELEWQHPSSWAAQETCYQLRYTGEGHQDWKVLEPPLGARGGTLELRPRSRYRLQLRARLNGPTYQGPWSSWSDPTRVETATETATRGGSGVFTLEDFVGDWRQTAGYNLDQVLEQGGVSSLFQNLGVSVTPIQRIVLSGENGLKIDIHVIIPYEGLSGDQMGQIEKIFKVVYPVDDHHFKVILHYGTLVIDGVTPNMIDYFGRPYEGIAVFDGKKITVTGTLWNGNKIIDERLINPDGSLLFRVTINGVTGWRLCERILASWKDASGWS
In words: NLuc assay: CAR-T cells incubated with MPL-GGSG-NLuc-AcV5 supernatant.

B1: CD8SP-AB317-(vL-vH)-Myc-CD28z-T2A-PAC(031615-T04) (scFv)
chain: DIVLTQSPASLAVSLGQSVTISCRASESVEYYGTSLMQWYQQKPGQPPKLLIYGASNVESGVPARFSGSGSGTDFSLNIHPVEEDDIAMYFCQQSRKVPWTFGGGTKLEIKGGGGSGGGGSGGGGSEVKLVESGGGLVKPGGSRKLSCAASGFTFSSYTMSWVRQTPAKRLEWVATISSGSSTIYYADTVKGRFTISRDNAKNTLFLQMTSLRSEDTAMYYCARRWFLDCWGQGTTLTVSSTREQKLISEEDLKIEVMYPPPYLDNEKSNGTIIHVKGKHLCPSPLFPGPSKPFWVLVVVGGVLACYSLLVTVAFIIFWVRSKRSRLLHSDYMNMTPRRPGPTRKHYQPYAPPRDFAAYRSRVKFSRSADAPAYQQGQNQLYNELNLGRREEYDVLDKRRGRDPEMGGKPRRKNPQEGLYNELQKDKMAEAYSEIGMKGERRRGKGHDGLYQGLSTATKDTYDALHMQALPPRSSGSGEGRGSLLTCGDVEENPG
notes: CAR on cells; entry = whole encoded polyprotein incl; CD8 signal peptide and T2A-PAC
For the molecule B1, the binding result in assay [1] is reported as “no binding”.

B2: CD8SP-KSHV-4C3-(vL-vH)-Myc-BBz-T2A-PAC(042315-N01) (scFv)
chain: DIVMTQSPSSLTMSVGQKVTMSCKSSHSLLNSRNQKNYLAWFQQKPGQSPKLLVYFASTRESGVPDRFIGSGSGTDFTLTISNVQAEDLADYFCQQHYTTLPTFGGGTKLEIKGGGGSGGGGSGGGGSQIQLVQSGPDLKKPGETVKISCKASGYTFTNTGMNWVKQAPGKGLKWMGWINTYTGEPTYADDFKGRFTFSLETSASTAYLQINNLKNEDTATYFCTRWGYGSSLYYAMDYWGQGTSVTVSSTREQKLISEEDLAKPTTTPAPRPPTPAPTIASQPLSLRPEACRPAAGGAVHTRGLDFACDIYIWAPLAGTCGVLLLSLVITLYCKRGRKKLLYIFKQPFMRPVQTTQEEDGCSCRFPEEEEGGCELRVKFSRSADAPAYQQGQNQLYNELNLGRREEYDVLDKRRGRDPEMGGKPRRKNPQEGLYNELQKDKMAEAYSEIGMKGERRRGKGHDGLYQGLSTATKDTYDALHMQALPPRSSGSGEGRGSLLTCGDVEENPG
notes: also called control CAR 4C3
B2: the binding result in assay [2] was “no binding”.

B3: CD8SP-161-(vL-vH)-GGSG-NLuc-AcV5 (scFv)
scFv: DDIQMTQSSSSFSVSLGDRVTITCMASEDIYIRLAWYQQKPGNAPRLLISAATSLETGVPSRFSGSGSGKDYTLSITSLQTEDVGTYYCQQYWSSPWTFGGGTKLEINGGGGSGGGGSGGGGSDVQLQESGPGLVKPSQSLSLTCTVTGYSITSDYTWNWIRQFPGNKLEWMGYITYSGSTSYNPSLKSRNSITRDTSKNQFFLQLNSVTTEDTATYYCARLGRRYTMDYWGQGTSVTVSSTRGGSGVFTLEDFVGDWRQTAGYNLDQVLEQGGVSSLFQNLGVSVTPIQRIVLSGENGLKIDIHVIIPYEGLSGDQMGQIEKIFKVVYPVDDHHFKVILHYGTLVIDGVTPNMIDYFGRPYEGIAVFDGKKITVTGTLWNGNKIIDERLINPDGSLLFRVTINGVTGWRLCERILASWKDASGWS
notes: the entry includes the CD8 signal peptide
For B3, in assay [3], the binding result is reported as “binds”.

B4: CD8SP-12E10-(vL-vH)-Myc-CD28z-T2A-PAC(031615-S03) (scFv)
chain: DQVQLQQSGPGLVKPSETLSLTCTVSGDSISSYYWSWIRQPPGKGLEWIGYIYYSGSTNYNPSLKSRVTISVDTSKSQFSLKLSSVTAADTAVYYCARGRYFDVWGRGTMVTSSGGGGSGGGGSGGGGSSSYVLTQPPSVSGSPGQSITISCTGTSSDVGGYNYVSWYQQHPGKAPKLMIYEGSKRPSGVSNRFSGSKSGNTASLTISGLQAEDEADYYCSSYTTRSTRVFGGGTKLTVLGAAATREQKLISEEDLKIEVMYPPPYLDNEKSNGTIIHVKGKHLCPSPLFPGPSKPFWVLVVVGGVLACYSLLVTVAFIIFWVRSKRSRLLHSDYMNMTPRRPGPTRKHYQPYAPPRDFAAYRSRVKFSRSADAPAYQQGQNQLYNELNLGRREEYDVLDKRRGRDPEMGGKPRRKNPQEGLYNELQKDKMAEAYSEIGMKGERRRGKGHDGLYQGLSTATKDTYDALHMQALPPRSSGSGEGRGSLLTCGDVEENPG
notes: as for B1
Regarding B4, the binding result in assay [1] is reported as “no binding”.

B5: CD8SP-4C3-(vL-vH)-Myc-CD28z-T2A-Pac(031615-W05) (scFv)
chain: DIVMTQSPSSLTMSVGQKVTMSCKSSHSLLNSRNQKNYLAWFQQKPGQSPKLLVYFASTRESGVPDRFIGSGSGTDFTLTISNVQAEDLADYFCQQHYTTLPTFGGGTKLEIKGGGGSGGGGSGGGGSQIQLVQSGPDLKKPGETVKISCKASGYTFTNTGMNWVKQAPGKGLKWMGWINTYTGEPTYADDFKGRFTFSLETSASTAYLQINNLKNEDTATYFCTRWGYGSSLYYAMDYWGQGTSVTVSSTREQKLISEEDLKIEVMYPPPYLDNEKSNGTIIHVKGKHLCPSPLFPGPSKPFWVLVVVGGVLACYSLLVTVAFIIFWVRSKRSRLLHSDYMNMTPRRPGPTRKHYQPYAPPRDFAAYRSRVKFSRSADAPAYQQGQNQLYNELNLGRREEYDVLDKRRGRDPEMGGKPRRKNPQEGLYNELQKDKMAEAYSEIGMKGERRRGKGHDGLYQGLSTATKDTYDALHMQALPPRSSGSGEGRGSLLTCGDVEENPG
notes: also called control CAR 4C3
In the case of B5, in the assay with MPL-ECD-GGSG-Nluc-AcV5, the binding result was “no binding”.

B6: CD8SP-161-(vL-vH)-Myc-CD28z-T2A-PAC(021715-Z07) (scFv)
chain: DDIQMTQSSSSFSVSLGDRVTITCMASEDIYIRLAWYQQKPGNAPRLLISAATSLETGVPSRFSGSGSGKDYTLSITSLQTEDVGTYYCQQYWSSPWTFGGGTKLEINGGGGSGGGGSGGGGSDVQLQESGPGLVKPSQSLSLTCTVTGYSITSDYTWNWIRQFPGNKLEWMGYITYSGSTSYNPSLKSRNSITRDTSKNQFFLQLNSVTTEDTATYYCARLGRRYTMDYWGQGTSVTVSSTREQKLISEEDLKIEVMYPPPYLDNEKSNGTIIHVKGKHLCPSPLFPGPSKPFWVLVVVGGVLACYSLLVTVAFIIFWVRSKRSRLLHSDYMNMTPRRPGPTRKHYQPYAPPRDFAAYRSRVKFSRSADAPAYQQGQNQLYNELNLGRREEYDVLDKRRGRDPEMGGKPRRKNPQEGLYNELQKDKMAEAYSEIGMKGERRRGKGHDGLYQGLSTATKDTYDALHMQALPPRSSGSGEGRGSLLTCGDVEENPG
notes: as for B1
B6: the binding result in assay [1] is “no binding”.

B7: CD8SP-175-(vL-vH)-Myc-CD28z-T2A-PAC(031615-Q04) (scFv)
chain: DQIVLTQSPAIMSASPGEKVTISCSASSSVSYMYWYQQKPGSSPKPWIYRTSNLASGVPARFSGSGSGTSYSLTISNMEAEDAAAYYCQQYHSYPTTFGGGTKLEVKGGGGSGGGGSGGGGSEVQLVESGGGLVQPKGSLKLSCAASGFSFNTYAMNWVRQAPGKGLEWIAHIRSKSNNFATYYADSVKDRFSISRDASENILFLQMNNLKTEDTAMYYCVRQGGDFPMDYWGQGTSVTVSSTREQKLISEEDLKIEVMYPPPYLDNEKSNGTIIHVKGKHLCPSPLFPGPSKPFWVLVVVGGVLACYSLLVTVAFIIFWVRSKRSRLLHSDYMNMTPRRPGPTRKHYQPYAPPRDFAAYRSRVKFSRSADAPAYQQGQNQLYNELNLGRREEYDVLDKRRGRDPEMGGKPRRKNPQEGLYNELQKDKMAEAYSEIGMKGERRRGKGHDGLYQGLSTATKDTYDALHMQALPPRSSGSGEGRGSLLTCGDVEENPG
notes: as for B1
With B7, in assay [1], the binding result was “no binding”.

For the origin of these results see patent publication US20240166755A1 (UNIVERSITY OF SOUTHERN CALIFORNIA, published 2024).
